# Laboratory results: patent US20170226155A1
# pIC50: −log10 of the molar value.
# How the values were obtained:
# [1] = molecular target: Dipeptidyl amino peptidase type IV (DPP IV); assay: cell-based or functional assay
# [2] = molecular target: DPP IV; assay: enzyme inhibition (A410); pH 2, 30 minutes
# [3] = molecular target: DPP IV; assay: enzyme inhibition (A410); pH 8, 10 minutes
# [4] = molecular target: DPP IV; assay: enzyme inhibition (A410); pH 2, 10 minutes
# [5] = molecular target: DPP IV; assay: enzyme inhibition (A410); pH 8, 30 minutes
# [6] = molecular target: DP IV; assay: enzyme inhibition (A410); pH 2, 30 minutes
# [7] = molecular target: DP IV; assay: enzyme inhibition (A410); pH 2, 10 minutes
# [8] = molecular target: DP IV; assay: enzyme inhibition (A410); pH 8, 30 minutes
# [9] = molecular target: -; assay: enzyme inhibition (A410); pH 2
# [10] = molecular target: -; assay: enzyme inhibition (A410); pH 8
# [11] = molecular target: -; assay: enzyme inhibition (A410); pH 12
# [12] = molecular target: -; assay: enzyme inhibition (fluorescence); pH 2, +DPIV
# [13] = molecular target: -; assay: enzyme inhibition (fluorescence); pH 2, -DPIV
# [14] = molecular target: -; assay: enzyme inhibition (fluorescence); pH 7.6, +DPIV
# [15] = molecular target: -; assay: enzyme inhibition (fluorescence); pH 7.6, -DPIV
Substance,"IC50 at ten minutes, pH 2 [1]","IC50 at ten minutes, pH 8 [1]",further results
ChgAlaEtgboroPro (peptide),600 nM,802 nM,
ChgThz4EtgboroPro (peptide),13 nM,16 nM,
ChgHypEtgboroPro (peptide),17 nM,25 nM,
ChgAla-tBugboroPro,,,pIC50 [2]: < 4.66; pIC50 [3]: < 4.66; pIC50 [4]: < 4.66; pIC50 [5]: < 4.66
ChgAlaValboroPro (peptide),190 nM,360 nM,"IC50, pH 2 (Tetrapeptide Prodrugs) [1]: 190 nM; IC50, pH 8 (Tetrapeptide Prodrugs) [1]: 360 nM"
AibAlaValboroPro (peptide),2 µM,,
ChgAlaProboroPro (peptide),2 µM,30 µM,"IC50, pH 2 (Tetrapeptide Prodrugs) [1]: 2 mM; IC50, pH 8 (Tetrapeptide Prodrugs) [1]: 30 mM"
ChgProChgboroAla (peptide),180 nM,170 nM,"IC50, pH 2 (Tetrapeptide Prodrugs) [1]: 180 nM; IC50, pH 8 (Tetrapeptide Prodrugs) [1]: 170 nM"
ChgProtBugboroAla (peptide),6.8 µM,8.4 µM,
ChgAib-EthylGly-boroPro,,,pIC50 [6]: 5.68; pIC50 [7]: 4.89; pIC50 [8]: 5.49
"N-Me-Gly-3,4 dehydroproline-ALA-PRO boronic acid (peptide)",39 nM,34 nM,
ChgProEtgboroPro (peptide),12 nM,14 nM,
ChgAzeEtgboroPro (peptide),15 nM,16 nM,
ChgProtBugboroPro (peptide),1.5 µM,8 µM,
Cyclohexylglycine-Proline-Ala-boroProline (peptide),17 nM,17 nM,"IC50, pH 2 (Tetrapeptide Prodrugs) [1]: 19 nM; IC50, pH 8 (Tetrapeptide Prodrugs) [1]: 15 nM"
ChgAlaEtgboroAla (peptide),1.3 µM,2.5 µM,
tBugProAlaboroPro (peptide),14 nM,18 nM,
Cyclohexylglycine-Proline-Valine-boroProline (peptide),70 nM,70 nM,"IC50, pH 2 (Tetrapeptide Prodrugs) [1]: 65 nM; IC50, pH 8 (Tetrapeptide Prodrugs) [1]: 72 nM"
tert-Butyl Gly-boro-Pro,,,pIC50 [9]: 8.47; pIC50 [10]: 6.52; pIC50 [11]: 7.72
Propyl Gly-boro-Pro,,,pIC50 [9]: 8.60; pIC50 [10]: 5.55; pIC50 [11]: 6.70
ChgDhpEtgboroPro (peptide),15 nM,17 nM,
ChgProChgboroPro (peptide),14 nM,14 nM,
ChgPipEtgboroPro (peptide),19 nM,14 nM,
AspProGlyboroLeu,,,pIC50 [12]: 6.97; pIC50 [13]: 6.63; pIC50 [14]: 7.03; pIC50 [15]: 6.63
